The numbers were not newly measured in PMC5750235, which cites them from elsewhere.

The target of this data set is IgE (Homo sapiens) (UniProt P01854).
Sequence of IgE (Homo sapiens) (P01854 whole entry): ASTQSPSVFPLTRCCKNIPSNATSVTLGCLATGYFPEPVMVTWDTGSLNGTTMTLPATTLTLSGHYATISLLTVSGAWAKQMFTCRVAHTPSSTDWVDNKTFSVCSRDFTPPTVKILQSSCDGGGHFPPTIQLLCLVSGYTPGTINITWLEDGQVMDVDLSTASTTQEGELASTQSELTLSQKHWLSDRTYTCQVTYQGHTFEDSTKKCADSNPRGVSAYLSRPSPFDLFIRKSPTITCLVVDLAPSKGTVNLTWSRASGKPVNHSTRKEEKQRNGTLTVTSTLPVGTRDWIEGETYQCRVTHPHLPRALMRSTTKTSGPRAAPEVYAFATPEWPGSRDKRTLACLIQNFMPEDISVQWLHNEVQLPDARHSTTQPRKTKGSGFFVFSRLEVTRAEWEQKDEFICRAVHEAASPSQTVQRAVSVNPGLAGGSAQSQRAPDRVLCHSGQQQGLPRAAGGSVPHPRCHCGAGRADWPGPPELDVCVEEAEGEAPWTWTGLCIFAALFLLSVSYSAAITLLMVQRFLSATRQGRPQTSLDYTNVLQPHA

Sequence of CD23 (P06734 48-321): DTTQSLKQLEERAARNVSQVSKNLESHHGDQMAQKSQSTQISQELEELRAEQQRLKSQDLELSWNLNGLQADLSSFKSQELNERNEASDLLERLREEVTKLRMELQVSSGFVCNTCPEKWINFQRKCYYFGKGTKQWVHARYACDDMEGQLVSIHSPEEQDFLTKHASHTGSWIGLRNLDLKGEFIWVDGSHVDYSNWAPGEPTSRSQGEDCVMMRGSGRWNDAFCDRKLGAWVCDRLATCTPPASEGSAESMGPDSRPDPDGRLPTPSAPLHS

As usually defined, the Kd is a measure of binding affinity in units of concentration. For the substance CD23 (from UniProt P06734), the Kd is 2000 nM.
